Literature values in paper PMC9101112.
pKi: −log10 of the molar value.

Key:
Assay in all cases: enzyme inhibition
valorphin (Bos taurus) = target: valorphin (Bos taurus)
spinorphin (Bos taurus) = target: spinorphin (Bos taurus)
Ile-Val-Tyr-Pro-Trp = target: Ile-Val-Tyr-Pro-Trp
Trp-Val-Tyr-Pro-Trp = target: Trp-Val-Tyr-Pro-Trp
tynorphin = target: tynorphin

pKi (valorphin (Bos taurus)) | pKi (spinorphin (Bos taurus)) | pKi (Ile-Val-Tyr-Pro-Trp) | pKi (Trp-Val-Tyr-Pro-Trp) | pKi (tynorphin) | Substance
7.31 | 5.62 | – | – | – | DPP III (from UniProt Q9NY33)
– | – | 7.00 | 6.90 | 5.57 | DPP III (from UniProt O55096)
